Patent publication US20120003670A1 (BLOOD CENTER RESEARCH FOUNDATION, published 2012)
Residue numbers refer to the chain shown, from its start. Numbers in names are those of the source.

B1: wild-type GPIbα (SEQ ID NO:11), full-length, on transfected HEK-293T cells (receptor)
chain: HPICEVSKVASHLEVNCDKRNLTALPPDLPKDTTILHLSENLLYTFSLATLMPYTRLTQLNLDRCELTKLQVDGTLPVLGTLDLSHNQLQSLPLLGQTLPALTVLDVSFNRLTSLPLGALRGLGELQELYLKGNELKTLPPGLLTPTPKLEKLSLANNNLTELPAGLLNGLENLDTLLLQENSLYTIPKGFFGSHLLPFAFLHGNPWLCNCEILYFRRWLQDNAENVYVWKQGVDVKAMTSNVASVQCDNSDKFPVYKYPGKGCPTLGDEGDTDLYDYYPEEDTEGDKVRATRTVVKFPTKAHTTPWGLFYSWSTASLDSQMPSSLHPTQESTKEQTTFPPRWTPNFTLHMESITFSKTPKSTTEPTPSPTTSEPVPEPAPNMTTLEPTPSPTTPEPTSEPAPSPTTPEPTSEPAPSPTTPEPTPIPTIATSPTILVSATSLITPKSTFLTTTKPVSLLESTKKTIPELDQPPKLRGVLQGHLESSRNDPFLHPDFCCLLPLGFYVLGLFWLLFASVVLILLLSWVGHVKPQALDSGQGAALTTATQTTHLELQRGRQVTVPRAWLLFLRGSLPTFRSSLFLWVRPNGRVGPLVAGRRPSALSQGRGQDLLSTVSIRYSGHSL
notes: also called wild-type control
B2: GPIbα D235Y, full-length, on transfected HEK-293T cells (receptor)
chain: B1 chain with D235Y
notes: Some cells were also transfected with GPIbβ and GP-IX; also called single mutation D235Y
B3: GPIbα G233V/D235Y/M239V, full-length, on transfected HEK-293T cells (receptor)
chain: B1 chain with G233V, D235Y, M239V
notes: Some cells were also transfected with GPIbβ and GP-IX; also called triple mutation; triple GPIbα mutation
B4: GPIbα M239V, full-length, on transfected HEK-293T cells (receptor)
chain: B1 chain with M239V
notes: Some cells were also transfected with GPIbβ and GP-IX; also called single mutation M239V
B5: GPIbα G233V/M239V, full-length, on transfected HEK-293T cells (GPIbα alone in Table 2) (receptor)
chain: B1 chain with G233V, M239V
notes: also called double mutation G233V/M239V
B6: GPIbα D235Y/M239V, full-length, on transfected HEK-293T cells (receptor)
chain: B1 chain with D235Y, M239V
notes: Some cells were also transfected with GPIbβ and GP-IX; also called double mutation D235Y/M239V
B7: GPIbα G233V/D235Y, full-length, on transfected HEK-293T cells (receptor)
chain: B1 chain with G233V, D235Y
notes: Some cells were also transfected with GPIbβ and GP-IX; also called double mutation G233V/D235Y
B8: GPIbα G233V, full-length, on transfected HEK-293T cells (receptor)
chain: B1 chain with G233V
notes: Some cells were also transfected with GPIbβ and GP-IX; also called single mutation G233V

target: T1, von Willebrand factor (VWF) in plasma of reference standards, controls and normal individuals (human, UniProt P04275 764-2813); assay: FACS on transfected HEK-293T cells, with ristocetin or botrocetin
T1 construct: In the assays VWF was the multimeric protein in diluted platelet poor plasma; also called PPP (source of VWF); ISTH 2
Protocol: (§1) For FACS, about 50 μl of a 1:10 dilution of platelet poor plasma (PPP; source of VWF) in assay buffer was added to the plate and serially diluted 1:2 to final dilution of 1:80. ISTH Lot #3 (GTI; Milwaukee, Wis.) was used as a standard and diluted 1:10 in assay buffer and serially diluted 1:2 to a final dilution of 1:320. The plate was then incubated for one hour at room temperature. After the one-hour incubation, the plate was centrifuged again at 1200 rpm for 5 minutes and the supernatant was discarded.
(§2) In some experiments, the PPP was diluted in PBS containing 1% BSA and either 1 mg/ml Ristocetin A (American Biochemical & Pharmaceuticals, Ltd.; Marlton, N.J.) or 1 mg/ml Botrocetin (Sigma Aldrich).
Fluorescently labeled antibodies (anti-GPIbα; Blood Research Institute) were diluted to a final concentration of 5 μg/ml in assay buffer. Fluorescently labeled anti-VWF polyclonal was also was diluted to a final concentration of 5 μg/ml in assay buffer and added to transfected cells incubated in PPP. Normal rabbit IgG (NRIgG; Pierce) and AP-1 were added at a concentration of 5 μg/ml to transfected cells as negative and positive controls, respectively. The plate was then incubated in the dark for one hour at room temperature. Assay buffer was added to each well to bring the final volume to 150 μl, and FACS was performed using a BD LSRII System (Becton Dickinson). […]

binding result | Binder
binds | B1

target: T1, von Willebrand factor (VWF) in plasma …; assay: FACS on transfected HEK-293T cells, ristocetin titration
Protocol: as §1, §2
Fluorescently labeled antibodies (anti-GPIbα; Blood Research Institute) were diluted to a final concentration of 5 μg/ml in assay buffer. Fluorescently labeled anti-VWF polyclonal was also was diluted to a final concentration of 5 μg/ml in assay buffer and added to transfected cells incubated in PPP. Normal rabbit IgG (NRIgG; Pierce) and AP-1 were added at a concentration of 5 μg/ml to transfected cells as negative and positive controls, respectively. The plate was then incubated in the dark for one hour at room temperature. Assay buffer was added to each well to bring the final volume to 150 μl, and FACS was performed using a BD LSRII System (Becton Dickinson). Results are shown in VWF:IbCo units.

binding result | Binder
binds | B2
binds | B3
binds | B4
binds | B5
binds | B6
binds | B7
binds | B8
